Values joined by “and” are separate entries in the source; they are usually repeats but may differ in a detail not shown here. Identical values can stand only once.
Experiments:
B7-H3 antigen protein [1] = molecular target: B7-H3 antigen protein (UniProt Q5ZPR3); assay: blocking ELISA, coated B7-H3 10 µg/mL; no blocker (m2Y31 0 µg/mL); 8H9 2 µg/mL
B7-H3 antigen protein [2] = molecular target: B7-H3 antigen protein (UniProt Q5ZPR3); assay: blocking ELISA, coated B7-H3 10 µg/mL; no blocker (m1B4 0 µg/mL); 8H9 2 µg/mL
B7-H3 antigen protein [3] = molecular target: B7-H3 antigen protein (UniProt Q5ZPR3); assay: blocking ELISA, coated B7-H3 10 µg/mL; no blocker (m2Y31 0 µg/mL); hu2Y31 2 µg/mL

B7-H3 antigen protein, sequence (Q5ZPR3 29-461): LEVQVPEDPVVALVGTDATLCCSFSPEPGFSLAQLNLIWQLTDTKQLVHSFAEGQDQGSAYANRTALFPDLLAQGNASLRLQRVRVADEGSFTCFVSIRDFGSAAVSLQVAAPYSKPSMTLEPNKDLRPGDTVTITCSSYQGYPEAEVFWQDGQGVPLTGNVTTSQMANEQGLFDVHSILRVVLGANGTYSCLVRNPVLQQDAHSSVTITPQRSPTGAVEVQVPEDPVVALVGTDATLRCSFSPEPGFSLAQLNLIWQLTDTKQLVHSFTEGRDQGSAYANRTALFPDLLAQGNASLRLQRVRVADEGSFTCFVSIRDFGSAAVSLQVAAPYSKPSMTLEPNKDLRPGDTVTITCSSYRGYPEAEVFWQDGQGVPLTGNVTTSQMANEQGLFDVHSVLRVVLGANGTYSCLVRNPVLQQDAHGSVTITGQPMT

OD value (450 nm) (B7-H3 antigen protein [1]) [OD450]	OD value (450 nm) (B7-H3 antigen protein [2])	OD value (450 nm) (B7-H3 antigen protein [3])	Binder
2.36	3.38 OD450 and 3.39 OD450		antibody 8H9 (antibody, from another filing, V domains shown) VH: QVQLQQSGAELVKPGASVKLSCKASGYTFTNYDINWVRQRPEQGLEWIGWIFPGDGSTQYNEKFKGKATLTTDTSSSTAYMQLSRLTSEDSAVYFCARQTTATWFAYWGQGTLVTVSA VL: DIVMTQSPATLSVTPGDRVSLSCRASQSISDYLHWYQQKSHESPRLLIKYASQSISGIPSRFSGSGSGSDFTLSINSVEPEDVGVYYCQNGHSFPLTFGAGTKLELKR
		2.07 OD450 and 2.02 OD450	humanized 2Y31 antibody (antibody, V domains shown) VH: EVQLVESGGGLVKPGGSLKLSCAASGFAFSRYDMSWVRQSPEKRLEWVATISDDGRHTYDRDSVKGRFTISRDNAKNTLYLQMSSLRSEDTALYYCVRHRAITTARFDYWGQGTTVTVSS VL: DIVMTQSPSSLSVSLGDTVSITCKASQDIYSNIGWLQQLPGQSFKGLIYHGTNLEDGVPSRFSGSGSGTDYSLTISGLESEDFADYYCLQYVQFPYTFGGGTKLEIKA

Source: patent publication EP4644420A1 (Unicet Biotech. LLC, dated 2025)
